Data on 14 molecules can be found in patent publication US20240150473A1 (SURROZEN OPERATING, published 2024).

Changes are numbered by the printed parent chain.

Assay [1] deals with T1, biotinylated LRP6E3E4 (UniProt O75581 631-1246, limits assumed, biotinylated (site not stated)).
T1 construct: domain: E3E4; also called Lrp6E3E4 domain; Lrp6 receptor
T1 sequence (looked up): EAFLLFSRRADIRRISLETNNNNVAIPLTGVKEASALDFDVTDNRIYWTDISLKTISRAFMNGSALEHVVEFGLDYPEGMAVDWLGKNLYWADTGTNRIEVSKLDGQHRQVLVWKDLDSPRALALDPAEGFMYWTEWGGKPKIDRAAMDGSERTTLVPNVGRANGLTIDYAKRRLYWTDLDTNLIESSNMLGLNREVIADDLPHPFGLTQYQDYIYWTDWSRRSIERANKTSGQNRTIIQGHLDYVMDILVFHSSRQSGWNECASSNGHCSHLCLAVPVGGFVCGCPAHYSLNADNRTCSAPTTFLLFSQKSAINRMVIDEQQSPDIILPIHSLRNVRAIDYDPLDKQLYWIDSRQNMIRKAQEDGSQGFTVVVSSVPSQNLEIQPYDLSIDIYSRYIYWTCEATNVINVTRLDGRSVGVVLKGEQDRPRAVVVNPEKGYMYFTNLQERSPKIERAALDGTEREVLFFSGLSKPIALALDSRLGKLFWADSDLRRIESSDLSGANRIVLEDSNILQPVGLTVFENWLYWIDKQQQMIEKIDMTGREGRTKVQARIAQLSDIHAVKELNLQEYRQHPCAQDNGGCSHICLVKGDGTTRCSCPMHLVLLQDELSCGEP
Put plainly: BLI (Octet Red 96), biotinylated LRP6E3E4 on streptavidin sensor, 1:1 fit; SEC fraction D3 (first block). How it is done:
(§1) Proteins were purified using His-Complete resin (Roche, USA) following standard procedures. Expression levels and homogeneity of VHH26 and its humanized variants were analyzed by SDS-PAGE and SEC (size-exclusion chromatography). […] Biotinylated LRP6E3E4 diluted to 50 nM in the running buffer (PBS, 0.05% Tween-20, 0.5% BSA, pH 7.2) were captured to the SA biosensor followed by dipping into wells containing the indicated VHH26 proteins at different concentrations in running buffer or into a well with only running buffer as a reference channel. KD for each binder was calculated by Octet System software, based on fitting to a 1:1 binding model. Kinetics values (Kon, Koff, KD) from each experiment was calculated from seven technical replicates of different concentrations of the molecule tested with Octet Data Analysis 9.0 (PALL ForteBio, Fremont, CA).
(§2) Central fractions of each of these peaks were examined by Octect-BLI for their ability interact with Lrp6. Kinetics parameters such as kon, koff, and KD for interaction between VHH26 constructs and Lrp6E3E4 domain are listed in Table 2.

Assay [2] addresses T1, biotinylated LRP6E3E4. Put plainly: BLI (Octet Red 96), biotinylated LRP6E3E4 on streptavidin sensor, 1:1 fit; SEC fraction D3 (second block). How it is done: as §1, §2
The next assay concerns the target LRP5 (human (Huh-7 human liver reporter …, UniProt O75197)). Briefly: cell-based or functional assay.
The target of a further assay is LRP6 (human (Huh-7 human liver reporter …, UniProt O75581)). Briefly: cell-based or functional assay.
Sequence of LRP6 (human (O75581 20-1613 limits assumed): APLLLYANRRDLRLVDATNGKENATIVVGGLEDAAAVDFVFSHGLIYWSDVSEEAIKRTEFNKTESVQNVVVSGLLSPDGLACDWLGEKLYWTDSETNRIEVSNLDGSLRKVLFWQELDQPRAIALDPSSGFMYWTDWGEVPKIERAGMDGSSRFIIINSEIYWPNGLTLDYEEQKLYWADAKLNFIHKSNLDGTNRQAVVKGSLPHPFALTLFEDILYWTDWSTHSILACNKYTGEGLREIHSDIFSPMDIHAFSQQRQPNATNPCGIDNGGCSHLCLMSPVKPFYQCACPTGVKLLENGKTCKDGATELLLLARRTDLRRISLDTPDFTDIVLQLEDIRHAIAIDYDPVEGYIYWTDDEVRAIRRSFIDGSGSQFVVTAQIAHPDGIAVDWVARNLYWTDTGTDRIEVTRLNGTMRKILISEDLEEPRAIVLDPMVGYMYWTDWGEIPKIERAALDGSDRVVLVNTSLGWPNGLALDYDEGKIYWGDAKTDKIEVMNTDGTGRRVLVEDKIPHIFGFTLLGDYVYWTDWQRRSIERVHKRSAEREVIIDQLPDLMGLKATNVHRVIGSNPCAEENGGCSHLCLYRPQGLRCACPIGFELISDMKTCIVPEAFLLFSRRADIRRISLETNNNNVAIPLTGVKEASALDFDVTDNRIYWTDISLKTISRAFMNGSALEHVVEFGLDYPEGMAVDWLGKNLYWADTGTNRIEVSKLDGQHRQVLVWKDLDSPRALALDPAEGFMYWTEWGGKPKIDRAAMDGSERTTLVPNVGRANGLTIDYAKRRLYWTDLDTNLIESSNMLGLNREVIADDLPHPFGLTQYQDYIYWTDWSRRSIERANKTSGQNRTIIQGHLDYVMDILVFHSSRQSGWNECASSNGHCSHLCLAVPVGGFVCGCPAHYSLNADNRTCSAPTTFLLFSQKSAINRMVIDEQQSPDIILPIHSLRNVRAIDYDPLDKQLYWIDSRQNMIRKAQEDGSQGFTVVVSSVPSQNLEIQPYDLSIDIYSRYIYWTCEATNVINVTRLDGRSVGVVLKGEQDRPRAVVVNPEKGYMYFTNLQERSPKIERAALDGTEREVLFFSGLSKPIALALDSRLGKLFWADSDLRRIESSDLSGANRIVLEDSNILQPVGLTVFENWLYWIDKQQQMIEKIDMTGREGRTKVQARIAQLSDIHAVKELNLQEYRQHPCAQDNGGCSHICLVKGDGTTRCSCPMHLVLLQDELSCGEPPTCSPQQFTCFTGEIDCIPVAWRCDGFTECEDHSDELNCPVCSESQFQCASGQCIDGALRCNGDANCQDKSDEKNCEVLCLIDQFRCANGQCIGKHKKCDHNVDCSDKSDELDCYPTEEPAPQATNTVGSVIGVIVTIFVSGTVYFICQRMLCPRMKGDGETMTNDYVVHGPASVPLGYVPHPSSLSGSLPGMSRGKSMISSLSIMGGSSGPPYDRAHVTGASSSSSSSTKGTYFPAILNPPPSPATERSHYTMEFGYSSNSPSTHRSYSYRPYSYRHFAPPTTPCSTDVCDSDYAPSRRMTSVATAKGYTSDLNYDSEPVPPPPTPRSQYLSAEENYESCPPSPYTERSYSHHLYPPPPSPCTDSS
Assay [3] deals with T1, biotinylated LRP6E3E4. Briefly: BLI (Octet Red 96), biotinylated LRP6E3E4 on streptavidin sensor, 1:1 fit; SEC fraction C3. How it is done: as §1, §2
Assay [4] has as its target T1, biotinylated LRP6E3E4. Briefly: BLI (Octet Red 96), biotinylated LRP6E3E4 on streptavidin sensor, 1:1 fit; SEC fraction C1. The procedure:
as §1, §2

The target in assay [5] is T1, biotinylated LRP6E3E4. Put plainly: BLI (Octet Red 96), biotinylated LRP6E3E4 on streptavidin sensor, 1:1 fit; SEC fraction G3. How it is done: as §1, §2
For assay [6], the target named is T1, biotinylated LRP6E3E4. Put plainly: BLI (Octet Red 96), biotinylated LRP6E3E4 on streptavidin sensor, 1:1 fit; SEC fraction G1. The procedure: as §1, §2
The target of another assay is T2, Fzd5 CRD (biotinylated) (UniProt Q13467 27-155, limits assumed, biotinylated (site not stated)).
T2 construct: domain: CRD
T2 sequence (looked up): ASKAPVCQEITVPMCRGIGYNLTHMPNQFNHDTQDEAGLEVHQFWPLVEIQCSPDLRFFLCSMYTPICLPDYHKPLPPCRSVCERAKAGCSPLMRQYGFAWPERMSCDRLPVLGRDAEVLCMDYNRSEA
Put plainly: BLI (Octet Red 96), biotinylated Fzd5 CRD captured on SA biosensor, R2M13 as analyte at several concentrations, 1:1 fit; the legend paragraph 32 says IgG, the methods paragraph 311 say R2M13 Fab. How it is done: (§3) Biotinylated CRDs of Fzds diluted to 25 nM in the running buffer (PBS, 0.05% Tween-20, 0.5% BSA, pH 7.2) were captured to the SA biosensor followed by dipping into wells containing the R2M13 Fab protein at different concentrations in running buffer or into a well with only running buffer as a reference channel. KD for each binder was calculated by Octet System software, based on fitting to a 1:1 binding model. Binding specificities of R2M13 IgG to 10 Fzds were also examined by the BLI assay. Biotinylated Fzd CRDs (H. Chen, Lu, Lee, & Li, 2020) diluted to 50 nM in the running buffer were captured to the SA biosensor followed by dipping into wells containing R2M13 IgG at 200 nM in running buffer.

A further assay concerns the target T3, Fzd8 CRD (biotinylated) (UniProt Q9H461 28-155, limits assumed, biotinylated (site not stated)).
T3 construct: domain: CRD
T3 sequence (looked up): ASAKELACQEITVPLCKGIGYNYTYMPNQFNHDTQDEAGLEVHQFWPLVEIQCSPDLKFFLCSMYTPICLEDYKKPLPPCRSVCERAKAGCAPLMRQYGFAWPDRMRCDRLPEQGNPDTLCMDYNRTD
Briefly: BLI (Octet Red 96), biotinylated Fzd8 CRD captured on SA biosensor, R2M13 as analyte at several concentrations, 1:1 fit; the legend paragraph 33 says IgG, the methods paragraph 311 say R2M13 Fab. The procedure: as §3

Sequence of LRP5 (human (O75197 32-1615 limits assumed): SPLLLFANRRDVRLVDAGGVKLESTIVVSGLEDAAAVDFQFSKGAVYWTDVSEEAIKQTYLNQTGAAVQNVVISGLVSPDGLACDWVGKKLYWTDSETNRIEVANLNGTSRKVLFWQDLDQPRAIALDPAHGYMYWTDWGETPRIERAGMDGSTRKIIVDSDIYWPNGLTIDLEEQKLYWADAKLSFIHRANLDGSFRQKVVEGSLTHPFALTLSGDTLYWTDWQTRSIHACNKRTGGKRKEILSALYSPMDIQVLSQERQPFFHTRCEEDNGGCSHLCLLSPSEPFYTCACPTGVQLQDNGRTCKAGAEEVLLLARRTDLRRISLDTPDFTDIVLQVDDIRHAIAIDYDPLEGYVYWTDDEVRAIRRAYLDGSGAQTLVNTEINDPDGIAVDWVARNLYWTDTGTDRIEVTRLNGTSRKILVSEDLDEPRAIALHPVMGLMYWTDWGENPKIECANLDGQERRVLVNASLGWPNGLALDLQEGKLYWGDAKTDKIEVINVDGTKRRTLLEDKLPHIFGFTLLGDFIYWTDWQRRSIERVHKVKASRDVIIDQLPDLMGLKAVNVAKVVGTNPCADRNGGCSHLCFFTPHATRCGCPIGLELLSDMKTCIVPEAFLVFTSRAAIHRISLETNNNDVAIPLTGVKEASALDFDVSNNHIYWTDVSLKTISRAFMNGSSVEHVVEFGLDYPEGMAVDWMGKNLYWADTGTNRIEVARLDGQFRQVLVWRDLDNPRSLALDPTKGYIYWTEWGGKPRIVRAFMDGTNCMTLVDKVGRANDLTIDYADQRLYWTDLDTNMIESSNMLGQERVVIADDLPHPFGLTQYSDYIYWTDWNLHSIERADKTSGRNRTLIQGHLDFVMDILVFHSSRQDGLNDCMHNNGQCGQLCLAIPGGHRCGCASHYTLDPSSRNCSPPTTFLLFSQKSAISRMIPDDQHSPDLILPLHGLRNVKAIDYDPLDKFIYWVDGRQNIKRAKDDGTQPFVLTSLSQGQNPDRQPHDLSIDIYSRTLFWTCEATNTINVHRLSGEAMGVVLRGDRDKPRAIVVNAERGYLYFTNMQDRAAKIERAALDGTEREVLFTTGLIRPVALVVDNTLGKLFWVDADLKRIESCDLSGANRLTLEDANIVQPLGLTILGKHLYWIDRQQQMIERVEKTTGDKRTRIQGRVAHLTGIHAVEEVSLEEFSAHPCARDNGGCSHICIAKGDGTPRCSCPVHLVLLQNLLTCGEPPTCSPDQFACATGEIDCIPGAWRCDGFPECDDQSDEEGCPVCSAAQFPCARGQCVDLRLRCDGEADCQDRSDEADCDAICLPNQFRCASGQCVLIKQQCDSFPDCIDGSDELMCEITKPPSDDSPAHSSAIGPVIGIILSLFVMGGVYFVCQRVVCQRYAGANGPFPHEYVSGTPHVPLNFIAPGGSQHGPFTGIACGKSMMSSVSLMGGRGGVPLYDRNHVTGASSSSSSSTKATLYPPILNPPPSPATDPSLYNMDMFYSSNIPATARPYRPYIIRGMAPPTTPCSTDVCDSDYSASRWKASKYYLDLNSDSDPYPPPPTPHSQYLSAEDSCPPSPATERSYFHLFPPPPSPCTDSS

B1: VHH26 (parental) (VHH)
VHH: DVQLVESGGGLVQAGGSLRLACAGSGRIFAIYDIAWYRHPPGNQRELVAMIRPVVTEIDYADSVKGRFTISRNNAMKTVYLQMNNLKPEDTAVYYCNAKRPWGSRDEYWGQGTQVTVSS
notes: Expressed in Expi293 cells with a C-terminal hexa-histidine tag; also called VHH26_His; parental VHH26
Turning to B1, the Kd was 17 nM in the assay with biotinylated LRP6E3E4 [1] and 22 nM in the assay with biotinylated LRP6E3E4 [2].

B2: VHH03, Parental LALAPG (bispecific antibody)
heavy chain (R2M13 VH-IgG1 LALAPG): EVQLLQSGAEVKKPGSSVKVSCKASGGTFTYRYLHWVRQAPGQGLEWMGGIIPIFGTGNYAQKFQGRVTITADESTSTAYMELSSLRSEDTAVYYCASSMVRVPYYYGMDVWGQGTLVTVSSASTKGPSVFPLAPSSKSTSGGTAALGCLVKDYFPEPVTVSWNSGALTSGVHTFPAVLQSSGLYSLSSVVTVPSSSLGTQTYICNVNHKPSNTKVDKKVEPKSCDKTHTCPPCPAPEAAGGPSVFLFPPKPKDTLMISRTPEVTCVVVDVSHEDPEVKFNWYVDGVEVHNAKTKPREEQYNSTYRVVSVLTVLHQDWLNGKEYKCKVSNKALGAPIEKTISKAKGQPREPQVYTLPPSREEMTKNQVSLTCLVKGFYPSDIAVEWESNGQPENNYKTTPPVLDSDGSFFLYSKLTVDKSRWQQGNVFSCSVMHEALHNHYTQKSLSLSPGK
light chain (VHH03-linker-R2M13 light chain): not shown
Turning to B2, in the assay with LRP5, the “EC50, Super TOPFlash (STF) luciferase reporter in Huh-7 STF cells; row LRP5 / VHH03, column Parental LALAPG EC50” value was found to be 0.11 nM.

B3: VHH36, Humanized LALAPG (bispecific antibody, human IgG1, kappa, L234A L235A)
heavy chain (R2M13 VH-IgG1 LALAPG): B2 heavy chain (R2M13 VH-IgG1 LALAPG)
light chain (humanized VHH36-linker-R2M13 light chain): not shown
As for B3, the “EC50, Super TOPFlash (STF) luciferase reporter in Huh-7 STF cells; row LRP5&6 / VHH36, column Humanized LALAPG EC50 (nM); one value given for both LRP5 and LRP6” value with LRP5 and in the assay with LRP6 was 1.2 nM in each case.

B4: VHH03, Humanized LALAPG (bispecific antibody)
heavy chain (R2M13 VH-IgG1 LALAPG): B2 heavy chain (R2M13 VH-IgG1 LALAPG)
light chain (humanized VHH03-linker-R2M13 light chain): not shown
For the molecule B4, in the assay with LRP5, the “EC50, Super TOPFlash (STF) luciferase reporter in Huh-7 STF cells; row LRP5 / VHH03, column Humanized LALAPG EC50” value is 1.8 nM.

B5: VHH26, Parental LALAPG (bispecific antibody)
heavy chain (R2M13 VH-IgG1 LALAPG): B2 heavy chain (R2M13 VH-IgG1 LALAPG)
light chain (VHH26-linker-R2M13 light chain): not shown
In the case of B5, the “EC50, Super TOPFlash (STF) luciferase reporter in Huh-7 STF cells; row LRP6 / VHH26, column Parental LALAPG EC50” value in the assay with LRP6 came to 1.1 nM.

B6: VHH36, Parental LALAPG (bispecific antibody, human IgG1, kappa, L234A L235A)
heavy chain (R2M13 VH-IgG1 LALAPG): B2 heavy chain (R2M13 VH-IgG1 LALAPG)
light chain (VHH36-linker-R2M13 light chain): not shown
Regarding B6, the “EC50, Super TOPFlash (STF) luciferase reporter in Huh-7 STF cells; row LRP5&6 / VHH36, column Parental LALAPG EC50 (nM); one value given for both LRP5 and LRP6” value with LRP5 and in the assay with LRP6 was 0.06 nM each time.

B7: R2M13-26 humanized LALAPG (R2M13-h26) (bispecific antibody)
heavy: B2 heavy chain (R2M13 VH-IgG1 LALAPG)
light: not shown
Turning to B7, the “EC50, Super TOPFlash (STF) luciferase reporter in Huh-7 STF cells; row LRP6 / VHH26, column Humanized LALAPG EC50” value with LRP6 was found to be 0.63 nM.

B8: VHH26-H3 (VHH)
VHH: EVQLVESGGGLVQPGGSLRLSCAGSGRIFAIYDIAWYRQAPGKGREWVAMIRPVVTEIDYADSVKGRFTISRDNSKNTVYLQMNSLRAEDTAVYYCNAKRPWGSRDEYWGQGTTVTVSS
notes: Expressed in Expi293 cells with a C-terminal hexa-histidine tag; two SEC peaks were tested separately
Turning to B8, the Kd in the assay with biotinylated LRP6E3E4 [3] came out at 422 nM; with biotinylated LRP6E3E4 [4], 3200 nM.

B9: VHH26-H4 (VHH)
VHH: B8 VHH with W47L
notes: as for B8
In the case of B9, the equilibrium dissociation constant (Kd) with biotinylated LRP6E3E4 [5] came out at 192 nM; in the assay with biotinylated LRP6E3E4 [6] it was 662 nM.

B10: VHH26-H5 (VHH)
VHH: B8 VHH with N77K
notes: as for B8
Consider B10, for which the Kd was 109 nM in the assay with biotinylated LRP6E3E4 [3] and 41 nM with biotinylated LRP6E3E4 [4].

B11: VHH26-H2 (VHH)
VHH: B8 VHH with R45L
notes: as for B8
For the molecule B11, the Kd stood at 280 nM in the assay with biotinylated LRP6E3E4 [5] and 441 nM with biotinylated LRP6E3E4 [6].

B12: VHH26-H6 (VHH)
VHH: B8 VHH with W47L, N77K
notes: as for B8
As to B12, the Kd with biotinylated LRP6E3E4 [5] came out at 486 nM; in the assay with biotinylated LRP6E3E4 [6], 687 nM.

B13: VHH26-H1 (VHH)
VHH: B8 VHH with V5L, G24A, Y37V, R45L, A49S, V79L, N97A, A98K
notes: as for B8
In the assay with biotinylated LRP6E3E4 [3], B13 registered a Kd of 281 nM.

B14: R2M13 IgG (the Fzd5,8 binder IgG of R2M13-26) (antibody, V domains shown)
VH: EVQLLQSGAEVKKPGSSVKVSCKASGGTFTYRYLHWVRQAPGQGLEWMGGIIPIFGTGNYAQKFQGRVTITADESTSTAYMELSSLRSEDTAVYYCASSMVRVPYYYGMDVWGQGTLVTVSS
VL: not shown
notes: also called R2M13 antibody
In the case of B14, the results for the Kd with Fzd5 CRD (biotinylated) and with Fzd8 CRD (biotinylated) were 57.5 nM and 98.5 nM, respectively.
